B1: glycerol-3-phosphate dehydrogenase Saci_2032, N-terminally His-tagged (enzyme, Sulfolobus acidocaldarius DSM 639, UniProt Q4J7A2 1-431, looked up)
chain: MEIKTSVLVIGGGANGLFTALDLALRGIDVTLVERRDIGSGTSGRFHGLLHSGARYAVTDPESAKECIQENNIISKIAPHAIRDTGGLFLGITKEDLEFLDKFLSSLKKLGIEHKIVDNNQVLQEEPYVNKDLKIAIWVPDKVVYGYDLLSSIAVTGSLNKARIMTYNEVTEFIRDGNSIKGVKVFDKITNQMNLIKSDIIINTSGPWAFKIITMAGLEEIPILPTAGIMAVFGKKVNNAVLNRLRPPSDGDIIVPYQDTSILGTTATIIEDPDNFTISDEDVKMLIKEGSQLVPELSKTRVIRTYASVRPLMRTSEDGRKASRDFTILDHEREDGVSGLISIIGGKFTTSRLVGEKVGDLVSEKLGVRAKSKTKETKLISPSEIDFEKYLEKIGISKIFLKSVMERRGSLDEERYKTVLYLLLSLIARGR
B2: glycerol kinase Saci_1117 (enzyme, Sulfolobus acidocaldarius DSM 639, UniProt Q4J9R1 1-498, looked up)
chain: MSKYILAVDEGTTSARALVFDEDLNVISIAQTELTQYFPRPGYVEQNPEEIFEKQVSMIKKAVEKAKIEISQVSAIGIANQRETTIMWDSRSGRPVYNAVVWQDRRTSDITDWLKSNYLNLFKSKTGLIPDPYFSASKIKWILDNVPGVREKAERGEIKFGTVDTYLIWKLTNGKVHVTDYSNASRTMLFNIKKLEWDRDILEILEIPEAILPEVRSSSEVYGYAEPVGNIPISGDAGDQQAALFGQLGFSKGDVKCTYGTGSFILMNSGEEIYDSKDLLTTIAWKIGKDVKYALEGSIFTTGAAVQWVRDGLGLVSSSDEIESLASSVVDNGGVYFVPAFSGLGSPYWDPYARGLIIGISRGTSRGHIARAVLESIAYQVRDVIEVIKKDVGKEFVNVLKVDGGVSKNNLLMQFQADILGIRIVRPRVIETTSMGASMLAGLAVDYWSSLEELKSKWAVDREFIPSLQEDRRERLYKGWKEAVRRTIGWAREVETME
B3: glycerol-3-phosphate dehydrogenase Saci_1118, N-terminally His-tagged (enzyme, Sulfolobus acidocaldarius DSM 639, UniProt Q4J9Q8 1-428, looked up)
chain: MKQNSSVIVIGGGATGLFTALDLSLRGINVTLVERGDIASGTSGKFHGLLHSGARYAVNDPESAKECKQENEVLSKIAPEFVRDTGGVFVGITEDDVNYSQRFLSALNSLGITNKVMDVEELIRREPFINKKSKIAIWVPDKVVYGYDLLATVALTASLNGAKILTYNEVKRVLREGNSVRRVEVKDNISGETKILNGDIIVNTAGPWAFRVIEMAGLGEIPLLPTAGIMVVMKEKLNSMVINRLRPPSDGDIIVPYGDSSIIGTTATIIPDPDNFEISDEDINMLIEEGAYMIPRLKEVKPERAYASVRPLIKNAEDGRGATRDFMIIDHEKVDSLDGLISVIGGKFTTSRLAGEKVSDMVSEKLGIREKSKTATIKLMSELDEKLLEKKRVPKVLVKMIRERKGSLDEDRYSTAMYILLSLLARGE
B4: glycerol kinase Saci_2033 (enzyme, Sulfolobus acidocaldarius DSM 639, UniProt Q4J7A3 1-497, looked up)
chain: MAEKYVIAIDEGTTSARAIVFDKELNILGIGQNEFTQYYPQPGYVEHSPEEIWQAQLLAINKALEKAKIDRNNILSIGITNQRETTVMWDTRTGKPIYNAIVWQDRRTAPITDYLKANYLRLIKDRTGLVPDPYFSASKIKWILDNIPNAREKAEKGEIKFGTIDTYLIWKLTNGKAHVTDYSNASRTMLFNIRKLEWDREILEILNIPEAILPDVKPSSEIYGYAEILNSSIPISGDAGDQQAALFGQIAFNQGDVKCTYGTGSFILLNTGSNLVSSNDLLTTIAWGVGKGITYALEGSIFITGAAVQWFRDGLRAIDVSDEIEPLAGSVPDNGGVYFVPAFTGLGAPYWDPYARGLIIGITRGTTKAHIARAILESMAYQTMDVLGIMQRDSGIKIDALKVDGGASKNDLLMQFQADILKMKVVRPKIMETTSMGVAMLAGLSVGYWNSMDELKQKWKIDQVFEPKMDDEYREKLYSGWKEAVRRALGWAKTIGG

Target: the molecule itself
Assay: SEC

Stoichiometry N, 2:
B1
B2
B3
B4
